Results from patent US11453711B2, “Fusion proteins of GLP-1 and GDF15 and conjugates thereof” (BEIJING QL BIOPHARMACEUTICAL CO., LTD., priority 2019, dated 2022).
Numbering of substitutions follows the chain as printed.

Legend:
[1] = Body weight and food intake in C57BL/6 mice, unconjugated fusion proteins, 30 nmol/kg daily 10 days; format: in vivo; settings: for Body weight reduction at 30 nmol/kg (% reduction compared to vehicle)(Day11) / Cumulative food intake reduction at 30 nmol/kg (% reduction compared to vehicle)(Day11): C57 mice, 30 nmol/kg daily, Day11, unconjugated fusion proteins
Procedure: (§1) 10 week old male C57BL/6 mice were injected everyday subcutaneously with 15 nmol/kg of the fusion protein conjugates (i.e., MLC002, MLC 004, MLC 005, MLC 006, MLC 007, MLC 008, and MLC 009) for 14 days. Food intake and body weight were measured daily and five animals were used for each treatment group. Body weight (BW) was monitored for each individual animal, but food intake for each group animals was measured together. Day 1 and Day 14 are first day and last day of molecule dosage. % BW loss=100*(BW on Day n-BW on Day 1)/(BW on Day 1). Cumulative food intake on Day n represents sum of food intake from Day 1 to Day n. Data are indicated as mean values and standard error (SEM) or pooled values. Statistical analysis was performed by One-way ANOVA. Body weight reduction on Day 11 is calculated by −1*(% BW loss−% BW loss of vehicle group); Cumulative food intake reduction is calculated by −100*(cumulative food intake-cumulative food intake of vehicle)/cumulative food intake of vehicle.
As described in the above method, a daily dose of 30 nmol/kg of the unconjugated fusion proteins (i.e., MLC100, MLC023, MLC022, MLC020, MLC003, MLC124, MLC021, MLC019, MLC102) were administered to C57BL/6 for 10 days. Data were calculated as above method. Day 1 and Day 10 are first day and last day of administration.

[2] = Pharmacokinetic measurement in mouse, single sc dose 30 nmol/kg, plasma ELISA; settings: for Cmax: read-out: Cmax (nmol/L), single sc dose 30 nmol/kg; for exposure (Cmax and AUC) / half-life (T1/2): single sc 30 nmol/kg, in words; for AUC0-24 h / Terminal t1/2 / Tmax: single sc dose 30 nmol/kg
Procedure: Each fusion protein was injected subcutaneously into C57BL/6 mice (n=3/group) once and plasma samples were collected at designed time points and analyzed by ELISA method. Plasma concentrations are indicated as mean values and standard error (SEM).
6-8 week old male C57BL/6 mice were administrated in a single subcutaneous dose of 30 nmol/kg of the fusion protein conjugates or unconjugated fusion proteins (i.e., MLC002, MLC004, MLC005, MLC006, MLC007, MLC008, MLC009, MLC013, MLC017, MLC047, MLC074, MLC075, MLC089, MLC093, MLC003 and MLC019) (n=3/group). Plasma samples were collected pre-dose (−5 min), 0.5 hr, 1 hr, 2 hr, 4 hr, 6 hr, 8 hr, 12 hr, 24 hr, 48 hr and 72 hr after the injection. The concentrations of the fusion protein conjugates in the plasma were measured by an ELISA assay which has immunoreactivity towards both GDF15 and intact N-terminal of GLP-1. Based on the graph showing plasma concentration of each protein versus time after subcutaneous injection, the pharmacokinetic parameters (including Tmax, Cmax, T1/2, AUC) were calculated by WinNonlin software.

[3] = PK study in non-human primates, single sc dose 5 nmol/kg, plasma ELISA; settings: monkey, single sc dose 5 nmol/kg; for Cmax: read-out: Cmax (nmol/L)
Procedure: Plasma samples were collected pre-dose (−5 min), 2 hr, 4 hr, 6 hr, 8 hr, 24 hr, 48 hr, 72 hr, 96 hr, 120 hr, 144 hr, 216 hr, 288 hr, 360 hr, 432 hr and 504 hr after the injection. The concentrations of the fusion protein conjugates in the plasma were measured by an ELISA assay which has immunoreactivity towards both GDF15 and intact N-terminal of GLP-1. Based on the graph showing plasma concentration of each protein versus time after subcutaneous injection, the pharmacokinetic parameters (including Tmax, Cmax, T1/2, AUC) were calculated by WinNonlin software.

[4] = Efficacy in db/db mice: body weight, food intake, glucose, biomarkers, daily sc 14 days; format: in vivo
Procedure: (§2) FIGS. 4A-4D show In vivo efficacy in db/db mice. To evaluate the body weight, food intake and glucose effects of the fusion proteins, 8 week old male db/db mice were dosed everyday subcutaneously with 30 nmol/kg protein for 14 days. […] Compared to Vehicle control: ***, p<0.001. Data are expressed as mean values and standard error (SEM) for FIGS. 4A, 4B and 4D. n=5 for each treatment group. For FIG. 4C, a pooled food intake was measured for each treatment group.
FIGS. 5A-5F show In vivo efficacy in db/db mice. To evaluate the body weight, food intake and glucose effects of the fusion proteins, 8 week old male db/db mice were dosed everyday subcutaneously with different concentrations of proteins for 14 days. FIGS. 5A and 5B show body weight loss upon protein treatments from Day1 to Day15. […] Compared to Vehicle control: ***, p<0.001; **, p<0.01; *, p<0.05; ns, non-statistically significant; FIGS. 5D and 5E show cumulative food intake with protein treatments from Day1 to Day15. […] Compared to Vehicle control: ***, p<0.001**, p<0.01; *, p<0.05; ns, non-statistically significant. Data are expressed as mean values and standard error (SEM) for FIGS. 5A, 5B, 5C and 5F. n=5 for each treatment group. For FIGS. 5D and 5E, a pooled food intake was measured for each treatment group.
as §2, with “8A-8I” for “4A-4D”, “different concentrations of proteins” for “30 nmol/kg protein”, “FIGS. 8D-8F show body weight loss upon dose titrations of fusion protein conjugates. […]” for “Compared to Vehicle control: ***, p<0.001.”, “8A” for “4A, 4B”, “8C-I.” for “4D.”, “8B,” for “4C,”
Selected fusion protein conjugates are assessed in disease animal models (DIO mice, db/db mice, etc.) to determine body weight, food intake, glucose efficacy with dose responses. Some biomarkers are also measured, including fasting insulin, plasma triglyceride, cholesterol, liver triglyceride, and inflammatory biomarkers (ALT, AST and CRP).
8 week old male db/db mice were injected everyday subcutaneously with designated proteins for 14 days. Age matched lean mice were used as control. Food intake and body weight were measured daily and five animals were used for each treatment group. Fasting glucose were tested on designated days as shown in each figure. Body weight was monitored for each individual animal, but food intake for each group animals was measured together. Day 1 and Day 14 are first day and last day of molecule dosage. % BW loss=100*(BW on Day n-BW on Day 1)/(BW on Day 1). Cumulative food intake on Day n represents sum of food intake from Day 1 to Day n. Terminal blood was collected and EDTA-2K plasma was prepared and frozen at −80° C. for biomarker measurement. Liver was also collected and frozen in liquid nitrogen and store at −80° C. Data are indicated as mean values and standard error (SEM) or pooled values. Statistical analysis was performed by One-way ANOVA.

[5] = Body weight and food intake in C57BL/6 mice, fusion protein conjugates, 30 nmol/kg daily 10 days; format: in vivo
Procedure: as §1
Data were calculated in the same way as described above. Day 1 and Day 10 are first day and last day of the administration.
MLC014 was used as a negative control. MLC014 has an amino acid sequence of SEQ ID NO: 261, which contains a linker fused to the N terminal of GDF15, with a CRM conjugated to the lysine residue in the linker. Tirzepatide was also used as a control.

[6] = 30 nmol/kg daily 14 days, FIG. 4, versus Semaglutide
[7] = 30 nmol/kg, FIG. 5A-E, versus Semaglutide, Tirzepatide and MLC014
[8] = 30 nmol/kg, FIG. 8A-C, versus Semaglutide, Tirzepatide and MLC014

B1: MLC102: unconjugated GLP-1/GDF15 fusion protein (protein)
chain: HGEGTFTSDVSSYLEEQAAKEFIAWLVRGGGGQEPGAQPGQEPGAQPGQEPGAQPGQEPGAQPGQEPGAQPGQEPGAQPGAQPGAQPGAQPGAQPGAQPGAQPGAQPGAQPGAQPGAQPGAQPGAQPGAQPGAQPGAQPGAQPGAQPGAQPARQGDHCPLGPGRCCRLHTVRASLEDLGWADWVLSPREVQVTMCIGACPSQFRAANLHAQIKTSLHRLKPDTVPAPCCVPASYNPMVLIQKTDTGVSLQTYDDLLAKDCHCI
[1]
  Body weight reduction at 30 nmol/kg (% reduction compared to vehicle)(Day11): 29.3%
  Cumulative food intake reduction at 30 nmol/kg (% reduction compared to vehicle)(Day11): 36.9%

B2: MLC019: unconjugated GLP-1/GDF15 fusion protein, linker of at least 80 residues (protein)
chain: HGEGTFTSDVSSYLEEQAAKEFIAWLVRGGGGQEPGAQPGQEPGAQPGQEPGAQPGQEPGAQPGQEPGAQPGQEPGAQPGAQPGAQPGAQPGAQPGAQPGAQPGAQPGAQPARQGDHCPLGPGRCCRLHTVRASLEDLGWADWVLSPREVQVTMCIGACPSQFRAANLHAQIKTSLHRLRPDTVPAPCCVPASYNPMVLIQRTDTGVSLQTYDDLLARDCHCI
[2]
  Cmax: 23.7 nmol/L
  exposure (Cmax and AUC): much shorter half-lives and exposures than MLC002 and MLC004
  half-life (T1/2): much shorter half-lives and exposures than MLC002 and MLC004
  AUC0-24 h: 0.2639 µM·h
  Terminal t1/2: 4.8 h
  Tmax: 4.0 h
[1]
  Body weight reduction at 30 nmol/kg (% reduction compared to vehicle)(Day11): 23.0%
  Cumulative food intake reduction at 30 nmol/kg (% reduction compared to vehicle)(Day11): 48.6%
[1]; unconjugated fusion proteins, 30 nmol/kg daily 10 days, by linker length
  in vivo efficacy (food intake and body weight reduction): the most significant results among all the tested fusion proteins

B3: MLC013: fusion polypeptide SEQ ID NO: 260 conjugated with Moiety A at 1K of Linker (conjugate)
chain: B2 chain with K20R, G32K
modifications: Moiety A conjugated at linker K1
[2]
  Cmax: 38.5 nmol/L
  AUC0-24 h: 0.5035 µM·h
  Terminal t1/2: 8.9 h
  Tmax: 3.3 h
[3]
  AUC0-96 h: 1.435 µM·h
  Terminal t1/2: 26 h
  Tmax: 7 h
  Cmax: 41.3 nmol/L
[4]; [6]
  body weight loss: sustainable and much better effect
  food intake suppression: sustainable and much better effect
[4]; 30 nmol/kg daily 14 days, FIG. 4D
  glucose lowering effect: comparable glucose lowering effect to Semaglutide
[4]; [7]
  body weight loss: sustainable and much better effect
  food intake suppression: sustainable and much better effect
[4]; FIG. 5 study
  efficacy: better efficacy than Semaglutide and GDF15 derivative (MLC014)
[5]
  Body weight reduction at 30 nmol/kg (% reduction compared to vehicle)(Day11): 21.4%
  Cumulative food intake reduction at 30 nmol/kg (% reduction compared to vehicle)(Day11): 45.2%

B4: MLC003: unconjugated GLP-1/GDF15 fusion protein (protein)
chain: HGEGTFTSDVSSYLEEQAAKEFIAWLVRGGGGQEPGQEPGQEPGQEPGQEPGQEPGQEPGQEPGAQPGAQPARQGDHCPLGPGRCCRLHTVRASLEDLGWADWVLSPREVQVTMCIGACPSQFRAANLHAQIKTSLHRLRPDTVPAPCCVPASYNPMVLIQRTDTGVSLQTYDDLLARDCHCI
[2]
  Cmax: 24.7 nmol/L
  exposure (Cmax and AUC): much shorter half-lives and exposures than MLC002 and MLC004
  half-life (T1/2): much shorter half-lives and exposures than MLC002 and MLC004
  AUC0-24 h: 0.1074 µM·h
  Terminal t1/2: 3.5 h
  Tmax: 1.0 h
[1]
  Body weight reduction at 30 nmol/kg (% reduction compared to vehicle)(Day11): 15.5%
  Cumulative food intake reduction at 30 nmol/kg (% reduction compared to vehicle)(Day11): 25.3%

B5: MLC020: unconjugated GLP-1/GDF15 fusion protein (protein)
chain: B4 chain with R140K, R162K, R178K
[1]
  Body weight reduction at 30 nmol/kg (% reduction compared to vehicle)(Day11): 17.0%
  Cumulative food intake reduction at 30 nmol/kg (% reduction compared to vehicle)(Day11): 26.0%

B6: MLC090: fusion polypeptide SEQ ID NO: 379 conjugated with Moiety C at 39C of Linker (conjugate)
chain: HGEGTFTSDVSSYLEEQAAKEFIAWLVRGGGGAQPGAQPGAQPGAQPGAQPGAQPGAQPGAQPGQEPGQCPGQEPGAQPGQEPGAQPGQEPGAQPGQEPGAQPGQEPGAQPARQGDHCPLGPGRCCRLHTVRASLEDLGWADWVLSPREVQVTMCIGACPSQFRAANLHAQIKTSLHRLKPDTVPAPCCVPASYNPMVLIQKTDTGVSLQTYDDLLAKDCHCI
modifications: Moiety C conjugated at linker Cys39
[3]
  AUC0-96 h: 1.987 µM·h
  Terminal t1/2: 40 h
  Tmax: 7 h
  Cmax: 36 nmol/L
[4]; [8]
  body weight loss: more body weight loss, food intake suppression and glycemic control
  food intake suppression: more body weight loss, food intake suppression and glycemic control
  glycemic control: more body weight loss, food intake suppression and glycemic control
[4]; FIG. 8 study
  efficacy: better efficacy than Semaglutide and GDF15 derivative (MLC014)
[5]
  Body weight reduction at 30 nmol/kg (% reduction compared to vehicle)(Day11): 24.5%
  Cumulative food intake reduction at 30 nmol/kg (% reduction compared to vehicle)(Day11): 44.4%

B7: MLC100: unconjugated GLP-1/GDF15 fusion protein (protein)
chain: HGEGTFTSDVSSYLEEQAAKEFIAWLVRGGGGQEPARQGDHCPLGPGRCCRLHTVRASLEDLGWADWVLSPREVQVTMCIGACPSQFRAANLHAQIKTSLHRLKPDTVPAPCCVPASYNPMVLIQKTDTGVSLQTYDDLLAKDCHCI
[1]
  Body weight reduction at 30 nmol/kg (% reduction compared to vehicle)(Day11): 9.9%
  Cumulative food intake reduction at 30 nmol/kg (% reduction compared to vehicle)(Day11): 26.3%
